Biological target: Human Flag-tagged RER1 TP37_38AA mutant (human)
Assay: co-IP; SH-SY5Y and U251 cells co-transfected with Flag-tagged RER1 (wild type or mutant) and NEDD4-2-HA, with or without Tg (0.5 uM); gentle RIPA lysis buffer; anti-Flag or anti-HA on Protein A/G magnetic beads, 4°C overnight; immunoblot

Chain of Human Flag-tagged RER1 TP37_38AA mutant (human) (P78508 whole entry, change not shown): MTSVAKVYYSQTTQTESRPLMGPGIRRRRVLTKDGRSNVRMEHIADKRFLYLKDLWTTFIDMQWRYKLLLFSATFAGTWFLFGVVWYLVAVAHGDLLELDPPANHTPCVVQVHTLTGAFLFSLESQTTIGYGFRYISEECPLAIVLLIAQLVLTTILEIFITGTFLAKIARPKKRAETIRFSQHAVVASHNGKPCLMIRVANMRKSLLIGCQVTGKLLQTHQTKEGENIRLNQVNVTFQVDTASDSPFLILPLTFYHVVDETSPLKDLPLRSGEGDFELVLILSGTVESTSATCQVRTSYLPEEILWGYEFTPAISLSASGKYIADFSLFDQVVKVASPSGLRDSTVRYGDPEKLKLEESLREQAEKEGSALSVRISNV

Work on “Human HA-tagged NEDD4-2 (from UniProt Q96PU5-5 1-955) (natural protein)” yielded an interaction in percent of wild-type RER1 (co-IP densitometry) of 30 to 40%.
